The subject of series [1] is His-tagged cPARP3 (Gallus gallus). As to the kind of experiment: negative-stain EM with Ni-NTA nanogold. As to conditions: NMR: 20 mM Tris-HCl pH 7.0, 125 mM NaCl, 1 mM TCEP, 10% D2O, 303 K, ~300 uM protein, EMSA and EM buffers not given in material.
In series [2] the target is Reconstituted nicked mononucleosome (recombinant histone octamer on 601.2 DNA with a site-specific nick) (Xenopus laevis | not stated). Kind of series: Ni-NTA nanogold labelling with negative-stain electron microscopy; full-length His-tagged cPARP3 incubated for 30 min with intact or nicked nucleosomes; Ni-NTA-conjugated 5 nm gold added at 1:10 (cPARP3-nucleosomes:Ni-gold); negative stain with 2% uranyl acetate.

In series [3] the target is T1, cPARP3 NTD-WGR (1-169) (Gallus gallus, UniProt E1BSI0 1-169).
T1 sequence: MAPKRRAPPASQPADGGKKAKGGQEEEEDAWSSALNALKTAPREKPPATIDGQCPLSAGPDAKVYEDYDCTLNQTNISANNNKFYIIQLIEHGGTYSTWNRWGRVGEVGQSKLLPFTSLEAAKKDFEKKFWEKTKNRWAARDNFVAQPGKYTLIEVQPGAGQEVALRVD
As to the kind of experiment: NMR (1H-15N HSQC); NMR: 20 mM Tris-HCl pH 7.0, 125 mM NaCl, 1 mM TCEP, 10% D2O, 303 K, ~300 uM protein; EMSA and EM buffers not given in material. As to conditions: protein: recombinant; tags: N-terminal His tag (pNIC28-Bsa4) removed by TEV; 15N/13C labelled; 9 bp with 3' overhang 10 nt on S41. On the technique in general: A gel shift assay detects complexes by their altered migration in electrophoresis.

The target of series [4] is T1, cPARP3 NTD-WGR (1-169). As to the kind of experiment: NMR (1H-15N HSQC titration); protein:DNA 5:1 to 1:2; NMR: 20 mM Tris-HCl pH 7.0, 125 mM NaCl, 1 mM TCEP, 10% D2O, 303 K, ~300 uM protein; EMSA and EM buffers not given in material. As to conditions: protein: recombinant; tags: N-terminal His tag (pNIC28-Bsa4) removed by TEV; 15N/13C labelled; nicked duplex: S42 (10 nt) and S43 (9 nt) annealed to S41.

The molecule intact 601.2 mononucleosome had a binding signal (% of nucleosomes with gold particle) in series [1] of 30.
nicked 601.2 mononucleosome gave a binding signal (% of nucleosomes with gold particle) in series [1] (single nick at nucleotide 45 (Nt.BsmAI)) of 85.
As to “Full-length His-tagged chicken PARP3 (from UniProt E1BSI0 1-526) (enzyme)”, the percent of nucleosomes with a co-locating gold particle in series [2] is 85%.

B1: 10-nt 3'-overhang duplex with recessed 5'-phosphate (dsDNA)
DNA 1: GCACAGCCGTGAGCGATGC
DNA 2: CGGCTGTGC
modifications: 5'-phosphate on S43
As to B1, the binding result in the series with cPARP3 NTD-WGR (1-169) [3] is given as “binds”.

B2: 19-bp duplex with 5'-phosphorylated nick (Gap0 NMR) (dsDNA)
DNA 1: GCACAGCCGTGAGCGATGC
DNA 2: GCATCGCTCA
DNA 3: CGGCTGTGC
modifications: 5'-phosphate on S43
For B2, the binding result with cPARP3 NTD-WGR (1-169) [4] was “binds”.
